Tests used:
HLA-A*01:01 = assay: IEDB peptide-MHC binding, purified MHC/direct/fluorescence; filed as Kd, often an IC50 or EC50 that approximates it; ≥ and ≤ were set here for values at or beyond the usual limits of such assays
HLA-A*11:01 = assay: as above
HLA-A*31:01 = assay: as above
HLA-B*07:02 [1] = assay: as above
HLA-B*08:01 = assay: as above
HLA-B*15:01 [2] = assay: as above
HLA-B*15:09 [3] = assay: as above
HLA-B*18:01 [4] = assay: as above
HLA-B*39:01 = assay: as above
HLA-B*57:01 = assay: as above
HLA-B*58:01 = assay: as above
HLA-A*02:01 [5] = assay: IEDB peptide-MHC binding, purified MHC/competitive/fluorescence; filed as Kd, often an IC50 or EC50 that approximates it; ≥ and ≤ were set here for values at or beyond the usual limits of such assays; conditions: source organism: Influenza A virus H3N2
HLA-A*02:03 = assay: as above; conditions: source organism: Influenza A virus H3N2
HLA-A*02:06 = assay: as above
HLA-A*68:02 [6] = assay: as above; conditions: source organism: Influenza A virus H3N2
HLA-A*03:01 = assay: IEDB peptide-MHC binding, purified MHC/direct/fluorescence; filed as Kd, often an IC50 or EC50 that approximates it; ≥ and ≤ were set here for values at or beyond the usual limits of such assays
HLA-B*08:02 = assay: as above
HLA-B*15:17 [7] = assay: as above
HLA-B*27:05 [8] = assay: as above
HLA-B*40:01 = assay: as above
HLA-B*46:01 = assay: as above
HLA-B*48:01 = assay: as above
HLA-C*05:01 = assay: as above; conditions: source organism: Bacillus anthracis str. A0389
HLA-A*26:01 [9] = assay: IEDB peptide-MHC binding, purified MHC/competitive/fluorescence; filed as Kd, often an IC50 or EC50 that approximates it; ≥ and ≤ were set here for values at or beyond the usual limits of such assays; conditions: source organism: Bacillus anthracis str. A0389
HLA-B*15:01 [10] = assay: as above
HLA-B*15:09 [11] = assay: as above; conditions: source organism: Bacillus anthracis str. A0389
HLA-B*07:02 [12] = assay: IEDB peptide-MHC binding, purified MHC/competitive/radioactivity; ≥ and ≤ were set here for values at or beyond the usual limits of such assays; conditions: source organism: dengue virus type 1
HLA-B*35:01 [13] = assay: IEDB peptide-MHC binding, purified MHC/competitive/radioactivity; filed as Kd, often an IC50 or EC50 that approximates it; ≥ and ≤ were set here for values at or beyond the usual limits of such assays; conditions: source organism: Dengue virus 1 Brazil/97-11/1997
HLA-A*02:01 [14] = assay: IEDB peptide-MHC binding, purified MHC/direct/fluorescence; filed as Kd, often an IC50 or EC50 that approximates it; ≥ and ≤ were set here for values at or beyond the usual limits of such assays
HLA-A*68:02 [15] = assay: as above
HLA-A*26:03 = assay: IEDB peptide-MHC binding, purified MHC/competitive/fluorescence; filed as Kd, often an IC50 or EC50 that approximates it; ≥ and ≤ were set here for values at or beyond the usual limits of such assays; conditions: source organism: Orthomarburgvirus marburgense
HLA-B*40:02 = assay: IEDB peptide-MHC binding, cellular MHC/competitive/fluorescence; ≥ and ≤ were set here for values at or beyond the usual limits of such assays; conditions: source organism: Homo sapiens
HLA-A*26:01 [16] = assay: IEDB peptide-MHC binding, purified MHC/direct/fluorescence; filed as Kd, often an IC50 or EC50 that approximates it; ≥ and ≤ were set here for values at or beyond the usual limits of such assays; conditions: source organism: Variola virus
HLA-A*26:02 = assay: as above; conditions: source organism: Variola virus
HLA-A*69:01 = assay: as above; conditions: source organism: Cowpox virus
HLA-B*07:02 [17] = assay: IEDB peptide-MHC binding, purified MHC/competitive/fluorescence; filed as Kd, often an IC50 or EC50 that approximates it; ≥ and ≤ were set here for values at or beyond the usual limits of such assays; conditions: source organism: Vaccinia virus Copenhagen
HLA-B*15:17 [18] = assay: as above; conditions: source organism: Vaccinia virus Copenhagen
HLA-B*18:01 [19] = assay: as above; conditions: source organism: Vaccinia virus Copenhagen
HLA-B*27:05 [20] = assay: as above; conditions: source organism: Vaccinia virus Copenhagen
HLA-B*35:01 [21] = assay: as above; conditions: source organism: Vaccinia virus Copenhagen
[22] = source organism: Influenza A virus (A/equine/New York/1/1999(H3N8))
[23] = source organism: Influenza A virus(A/swine/Shandong/fNY/2003(H9N2))
[24] = source organism: Bacillus anthracis
[25] = source organism: Bacillus anthracis str. A0193
[26] = source organism: Bacillus anthracis str. A0389
[27] = source organism: Marburg virus - Musoke, Kenya, 1980

**Q.** ELVRKTRFL was tested. Which Kd (HLA-A*01:01; [22]) did it give?
**A.** ≥ 20 µM

**Q.** What about the Kd (HLA-A*11:01; [22]) of the same sequence?
**A.** ≥ 20 µM

**Q.** And the Kd (HLA-A*31:01; [22])?
**A.** ≥ 20 µM

**Q.** What about the Kd (HLA-B*07:02 [1]; [22]) of the same sequence?
**A.** ≥ 20 µM

**Q.** And the Kd (HLA-B*08:01; [22])?
**A.** 1.62 µM

**Q.** And the Kd (HLA-B*15:01 [2]; [22])?
**A.** ≥ 20 µM

**Q.** And the Kd (HLA-B*15:09 [3]; [23])?
**A.** ≥ 20 µM

**Q.** What about the Kd (HLA-B*18:01 [4]; [22]) of the same sequence?
**A.** ≥ 20 µM

**Q.** What about the Kd (HLA-B*39:01; [23]) of the same sequence?
**A.** ≥ 20 µM

**Q.** What about the Kd (HLA-B*57:01; [22]) of the same sequence?
**A.** ≥ 20 µM

**Q.** And the Kd (HLA-B*58:01; [22])?
**A.** ≥ 20 µM

**Q.** What about the Kd (HLA-A*02:01 [5]) of the same sequence?
**A.** ≥ 20 µM

**Q.** What about the Kd (HLA-A*02:03) of the same sequence?
**A.** ≥ 20 µM

**Q.** And the Kd (HLA-A*02:06; source organism: Influenza A virus H3N2)?
**A.** 2.88 µM

**Q.** And the Kd (HLA-A*68:02 [6])?
**A.** 1.43 µM

**Q.** FTDNNELEF was tested. Which Kd (HLA-A*01:01; [24]) did it give?
**A.** 0.002 µM

**Q.** And the Kd (HLA-A*03:01; [24])?
**A.** ≥ 20 µM

**Q.** What about the Kd (HLA-A*11:01; [24]) of the same sequence?
**A.** ≥ 20 µM

**Q.** And the Kd (HLA-A*31:01; [24])?
**A.** ≥ 20 µM

**Q.** And the Kd (HLA-B*08:02; [25])?
**A.** ≥ 20 µM

**Q.** What about the Kd (HLA-B*15:17 [7]; [24]) of the same sequence?
**A.** 0.003 µM

**Q.** And the Kd (HLA-B*27:05 [8]; [24])?
**A.** ≥ 20 µM

**Q.** And the Kd (HLA-B*39:01; [25])?
**A.** ≥ 20 µM

**Q.** What about the Kd (HLA-B*40:01; [24]) of the same sequence?
**A.** ≥ 20 µM

**Q.** What about the Kd (HLA-B*46:01; [24]) of the same sequence?
**A.** ≥ 20 µM

**Q.** And the Kd (HLA-B*48:01; [24])?
**A.** ≥ 20 µM

**Q.** What about the Kd (HLA-B*57:01; [24]) of the same sequence?
**A.** ≥ 20 µM

**Q.** And the Kd (HLA-B*58:01; [24])?
**A.** 0.212 µM

**Q.** What about the Kd (HLA-C*05:01) of the same sequence?
**A.** ≤ 0.001 µM

**Q.** What about the Kd (HLA-A*02:06; [26]) of the same sequence?
**A.** 0.0002 µM

**Q.** And the Kd (HLA-A*26:01 [9])?
**A.** ≥ 20 µM

**Q.** What about the Kd (HLA-B*15:01 [10]; [26]) of the same sequence?
**A.** ≥ 20 µM

**Q.** And the Kd (HLA-B*15:09 [11])?
**A.** ≥ 20 µM

**Q.** For HPASAWTLYA, which IC50 (HLA-B*07:02 [12]) is on record?
**A.** 0.00615 µM

**Q.** What about the Kd (HLA-B*35:01 [13]) of the same sequence?
**A.** 0.572 µM

**Q.** IISTNTLGK was tested. Which Kd (HLA-A*01:01; [27]) did it give?
**A.** ≥ 20 µM

**Q.** What about the Kd (HLA-A*02:01 [14]; [27]) of the same sequence?
**A.** ≥ 20 µM

**Q.** And the Kd (HLA-A*03:01; [27])?
**A.** 0.249 µM

**Q.** What about the Kd (HLA-A*11:01; [27]) of the same sequence?
**A.** 0.129 µM

**Q.** And the Kd (HLA-A*31:01; [27])?
**A.** ≥ 20 µM

**Q.** What about the Kd (HLA-A*68:02 [15]; [27]) of the same sequence?
**A.** ≥ 20 µM

**Q.** What about the Kd (HLA-B*07:02 [1]; [27]) of the same sequence?
**A.** ≥ 20 µM

**Q.** And the Kd (HLA-B*08:02; source organism: Ravn virus - Ravn, Kenya, 1987)?
**A.** ≥ 20 µM

**Q.** What about the Kd (HLA-B*15:01 [2]; [27]) of the same sequence?
**A.** ≥ 20 µM

**Q.** And the Kd (HLA-B*15:17 [7]; [27])?
**A.** ≥ 20 µM

**Q.** And the Kd (HLA-B*18:01 [4]; [27])?
**A.** ≥ 20 µM

**Q.** And the Kd (HLA-B*27:05 [8]; [27])?
**A.** ≥ 20 µM

**Q.** And the Kd (HLA-B*40:01; [27])?
**A.** ≥ 20 µM

**Q.** And the Kd (HLA-B*46:01; [27])?
**A.** ≥ 20 µM

**Q.** And the Kd (HLA-B*48:01; [27])?
**A.** ≥ 20 µM

**Q.** What about the Kd (HLA-B*57:01; [27]) of the same sequence?
**A.** ≥ 20 µM

**Q.** What about the Kd (HLA-B*58:01; [27]) of the same sequence?
**A.** ≥ 20 µM

**Q.** What about the Kd (HLA-A*26:03) of the same sequence?
**A.** ≥ 20 µM

**Q.** REGSFRVTT was tested. Which IC50 (HLA-B*40:02) did it give?
**A.** 1.9 µM

**Q.** YHRFGLYRL was tested. Which Kd (HLA-A*01:01; source organism: Cowpox virus) did it give?
**A.** ≥ 20 µM

**Q.** What about the Kd (HLA-A*02:01 [14]; source organism: Cowpox virus) of the same sequence?
**A.** ≥ 20 µM

**Q.** What about the Kd (HLA-A*26:01 [16]) of the same sequence?
**A.** ≥ 20 µM

**Q.** What about the Kd (HLA-A*26:02) of the same sequence?
**A.** ≥ 20 µM

**Q.** What about the Kd (HLA-A*68:02 [15]; source organism: Cowpox virus) of the same sequence?
**A.** ≥ 20 µM

**Q.** What about the Kd (HLA-A*69:01) of the same sequence?
**A.** ≥ 20 µM

**Q.** What about the Kd (HLA-B*08:01; source organism: Variola virus) of the same sequence?
**A.** ≥ 20 µM

**Q.** And the Kd (HLA-B*08:02; source organism: Variola virus)?
**A.** ≥ 20 µM

**Q.** What about the Kd (HLA-B*15:09 [3]; source organism: Variola virus) of the same sequence?
**A.** 2.43 µM

**Q.** And the Kd (HLA-B*39:01; source organism: Cowpox virus)?
**A.** 5.05 µM

**Q.** And the Kd (HLA-B*40:01; source organism: Cowpox virus)?
**A.** ≥ 20 µM

**Q.** And the Kd (HLA-B*46:01; source organism: Cowpox virus)?
**A.** ≥ 20 µM

**Q.** And the Kd (HLA-B*57:01; source organism: Cowpox virus)?
**A.** ≥ 20 µM

**Q.** What about the Kd (HLA-B*58:01; source organism: Cowpox virus) of the same sequence?
**A.** ≥ 20 µM

**Q.** What about the Kd (HLA-B*07:02 [17]) of the same sequence?
**A.** ≥ 20 µM

**Q.** And the Kd (HLA-B*15:01 [10]; source organism: Vaccinia virus Copenhagen)?
**A.** ≥ 20 µM

**Q.** And the Kd (HLA-B*15:17 [18])?
**A.** ≥ 20 µM

**Q.** What about the Kd (HLA-B*18:01 [19]) of the same sequence?
**A.** 2.66 µM

**Q.** What about the Kd (HLA-B*27:05 [20]) of the same sequence?
**A.** ≥ 20 µM

**Q.** What about the Kd (HLA-B*35:01 [21]) of the same sequence?
**A.** 2.7 µM
